Results on 41 sequences are retold here after the nanobody polyreactivity screen of Harvey et al. (2022).

The data set can be described thus: yeast display, Sf9 membrane polyspecificity reagent, FACS + sequencing; frameworks hold sequencing errors. In short, it runs like this: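 In a synthetic yeast display library (Saccharomyces cerevisiae BJ5465), nanobody expression was induced with galactose for 36–48 hours. FACS gates were set low and high (top ~1%) using anti-HA fluorescence for expression and streptavidin fluorescence for binding of the Sf9 membrane reagent. Each polyreactivity label is drawn from the gate of origin.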
Consider “QVQLVESGGGLVQAGGSLRLSCAASGRIFPVYVMGWYRQAPGKEREFVASISWRGGSTFYADSVKGRFTISRDNAKNTVYLQMNSLKPEDTAVYYCAADYWSSDSSRGTMYYWGQGTQVTVSS”, for which the “polyreactivity (PSR sort gate)” value is recorded as “low polyreactivity”.

As for “QVQLVESGGGLVQAGGSLRLSCAASGRIFPYNAMGWYRPAPGKEREFVAAITWSGGSTYYADSVKGRFTISRDNAKNTVYLQMNCLKPEDTAVYYCAIRYPWQYNYWGQGTQVTVSS”, the “polyreactivity (PSR sort gate)” value was “high polyreactivity”.

Regarding “QVQLVESGGGLVQAGGSLRLSCAASGRIFPYNAMGWYRQAPGKERELVAAINWSGGSTYYADSVKGRFTISRDNAKNTVYLQMNSLKPEDTAVYYCAAVYRYNSDPDYDYWGQGTQVTVSS”, the “polyreactivity (PSR sort gate)” value is given as “high polyreactivity”.

For the sequence “QVQLVESGGGLVQAGGSLRLSCAASGRIFPYYAMGWYRQAPGKERELVAAINWRGTRTYADSVKGRFTLSRDNAKNTVYLQMNSLKPEDTEVYYCAARTLYFSKYDYWGQGTQVTVSS”, the “polyreactivity (PSR sort gate)” value is “high polyreactivity”.

As to “QVQLVESGGGLVQAGGSLRLSCAASGRIFPYYAMGWYRQAPGKERELVAAITSGGTTYYADSVKGRFTISRDNAKNTVYLQMNSLKPEDTAVYYCNAVGTPVKISTDRGYWGQGTQVTVSS”, the “polyreactivity (PSR sort gate)” value is reported as “low polyreactivity”.

With “QVQLVESGGGLVQAGGSLRLSCAASGRIFPYYAMGWYRQAPGKERELVATITSGGSTYYADSVKGRFTISRDNAKNTVYLQMNSLKPEDTAVYYCAARYPSIYFYRYDYWGQGNQVTVSS”, the “polyreactivity (PSR sort gate)” value is “high polyreactivity”.

Regarding “QVQLVESGGGLVQAGGSLRLSCAASGRIFPYYAMGWYRQAPGKERELVAVISTRGGSTYYADSVKGRFTISRDNAKNTVYLQMNSLKPEDTAVYYCAAKSVYRMGYWGQGTQVTVSS”, the “polyreactivity (PSR sort gate)” value was “high polyreactivity”.

With “QVQLVESGGGLVQAGGSLRLSCAASGRIFPYYVMGWYRQAPGKERELVAAISRSGSSTYYADSVKGRFTISRDNAKNTVYLQMNSLKPEDTAVYYCAADYNWSPYYTRGDYWGQGTQVTVSS”, the “polyreactivity (PSR sort gate)” value is listed as “high polyreactivity”.

As for “QVQLVESGGGLVQAGGSLRLSCAASGRIFQINAMGWYRQAPGKERELVAAISWSDDTTYYADSVKGRFTISRDNAKNTVYLQMISLKPEDTAVYYCAAERGQDYSYSGDDDYWGQGTQVTVSS”, the “polyreactivity (PSR sort gate)” value is recorded as “high polyreactivity”.

As for “QVQLVESGGGLVQAGGSLRLSCAASGRIFQIYAMGWYRQAHGKERELVAAISSGGTTYYADSVKGRFTISRDNAKYTVYLLMNSLKPEDTAVYYCADASGYYRYDYWGQGTQVTVSS”, the “polyreactivity (PSR sort gate)” value is listed as “high polyreactivity”.

Take “QVQLVESGGGLVQAGGSLRLSCAASGRIFQIYAMGWYRQAPGKERELVAAISGSTSYADSVKGRFTISRDNAKNTVYLQMNCLKPEDSAVYDCSALSLLPNGEYWGQGSQVTVSS”: the “polyreactivity (PSR sort gate)” value is reported as “low polyreactivity”.

As for “QVQLVESGGGLVQAGGSLRLSCAASGRIFQIYAMGWYRQAPGKERELVAAISNRGGSTYYADSVKGRFTISRDNAKNTVYLQMNSLKPEDTAVYYCNATTGYGGYNYWGQGTQVTVSS”, the “polyreactivity (PSR sort gate)” value is “low polyreactivity”.

As to “QVQLVESGGGLVQAGGSLRLSCAASGRIFQIYAMGWYRQAPGKERELVATISSGTRTYYADSVKGRFTISRDNAKNTVYLQMNSLKPEDTAVYYCNTGLVYGYDYWGQGTQVTVSS”, the “polyreactivity (PSR sort gate)” value is listed as “high polyreactivity”.

Regarding “QVQLVESGGGLVQAGGSLRLSCAASGRIFQKNAMGWNIQAPGKERELVAVISWSDGSTNYADSVKGRFTISRDNAKNTVYLQMNSLKPEDTAVYYCNAAPLEGTLYDSWGQGTQVTVSS”, the “polyreactivity (PSR sort gate)” value is “low polyreactivity”.

For the sequence “QVQLVESGGGLVQAGGSLRLSCAASGRIFQKNAMGWYRQPPGKERELVAAISGSGSTTNYADSVKGRFTISRDNAKNTVDLQMNSLKPEDTAVFYCGTGKRGVSGRGFRYDYWGQGTQVTVSS”, the “polyreactivity (PSR sort gate)” value is given as “high polyreactivity”.

As for “QVQLVESGGGLVQAGGSLRLSCAASGRIFQKYAMGWSRQAPGKERELVAAISYGGGRTYYADSVKGRFTISRDNAKNTVYLQMNSLKPEDTAVYYCATDYKYAAPTVIESDYWGQGTQVTVSS”, the “polyreactivity (PSR sort gate)” value is given as “high polyreactivity”.

Consider “QVQLVESGGGLVQAGGSLRLSCAASGRIFQPYALGWYRQAPGKEREWVAAITRRAGSTYYADSVQGRFTISRDNAKNTVYLQMNSLKPDDTAVYYCAARGLYWAYEMEYWGQGTQVTVSS”, for which the “polyreactivity (PSR sort gate)” value was “low polyreactivity”.

In the case of “QVQLVESGGGLVQAGGSLRLSCAASGRIFQPYAMGWYRPAPGKDRELVAAITRRAGSTYYADSVKGRFTISRDNAKYTVYLQMNSLKPEDTAVYYCAARGLYWAYEMEYWGQGTQVTVSS”, the “polyreactivity (PSR sort gate)” value is on record as “low polyreactivity”.

Regarding “QVQLVESGGGLVQAGGSLRLSCAASGRIFQPYAMGWYRQAPGKERELVARITSGGSTYADSVKGRFTISRDNAKNTVYLQMNSLKPEDTAVYYCAVRYPWYYRGYAYDYWGQGTQVTVSS”, the “polyreactivity (PSR sort gate)” value is given as “high polyreactivity”.

Regarding “QVQLVESGGGLVQAGGSLRLSCAASGRIFQRNAMGWYRQAPGKEREFVAAITKSGGGTYADSVKGRFTISRDNAKNTVYLQMISLKPEDTAVYYCNVVPVWRPYSLINWQKHFGYWGQGTQVTVSS”, the “polyreactivity (PSR sort gate)” value is listed as “high polyreactivity”.

For the sequence “QVQLVESGGGLVQAGGSLRLSCAASGRIFQRNVMGWYRQAPGKERELVAAITGSGGSTYYADSLKGRFTISRDNAKNTVYLQMNSLKPEYTAVYYCAAKVYRGYDYWGQGTQVTVSS”, the “polyreactivity (PSR sort gate)” value is on record as “high polyreactivity”.

Consider “QVQLVESGGGLVQAGGSLRLSCAASGRIFQRYAMGWYRQAPGKERELVAAISSSGTTYYADSVKGRFTISRDNAKNTVYLQMNSLKPEDTAVYYCAATYYTSRISRRYGYWGQGTQVTVSS”, for which the “polyreactivity (PSR sort gate)” value is “high polyreactivity”.

As to “QVQLVESGGGLVQAGGSLRLSCAASGRIFQRYTMGWYRQAPGKEREFVAAITYSGGSTHYADSVKGRFTISRDNAKNTVYLQMNSLKPEDTAVYYCIADRYYGRGYGYWGQGTQVTVSS”, the “polyreactivity (PSR sort gate)” value is “low polyreactivity”.

For “QVQLVESGGGLVQAGGSLRLSCAASGRIFQRYTMGWYRQAPGKEREFVAAITYSGGSTHYADSVKRRFTISRDNAKYTVYLQMNSLKPEDTAVYSCNARTSVLHDYWGQGTQVTVSS”, the “polyreactivity (PSR sort gate)” value was “low polyreactivity”.

On to “QVQLVESGGGLVQAGGSLRLSCAASGRIFQYYAMGWYRQAPGKERELVAAINSSGGRTYYADSVKGRFTISRDNAKNTVYLQMNSLKPEDTAVYYCNAVLSTRGMDYWGQGTQVTVSS”, for which the “polyreactivity (PSR sort gate)” value is “high polyreactivity”.

On to “QVQLVESGGGLVQAGGSLRLSCAASGRIFQYYAMGWYRQAPGKERELVAAISSAGSTYYADSVKGRFTISRDNAKNTVYLQMNSLKPEDTAVYYCAVGKQVLSYQNYYWGQGTQVTVSS”, for which the “polyreactivity (PSR sort gate)” value was “low polyreactivity”.

As to “QVQLVESGGGLVQAGGSLRLSCAASGRIFQYYAMGWYRQAPGKERELVAAITRSGGSTYYADSVNGRFTISRDNAKNTVYLQMNSLKPEDTAVYYCARTYWITNSKFRDYLGAYGGEYWGQGTQVTVSS”, the “polyreactivity (PSR sort gate)” value is “high polyreactivity”.

In the case of “QVQLVESGGGLVQAGGSLRLSCAASGRIFQYYAMGWYRQATGKERELVAAISRTGSPYYADSVKGRVTISRDNAKNTVSLQMNSLTPADTAVYFCAADYWPQSNRWVYFRYGYWGLGTQVTVSS”, the “polyreactivity (PSR sort gate)” value was “high polyreactivity”.

Consider “QVQLVESGGGLVQAGGSLRLSCAASGRIFRANAMGWYRQAPGKERELVAAISTSGGSTTYADSVKGRFTISRDNAKNTVYLQMNCLKPEDTAVYYCAVDSWLKWRDKWVIRHDYWGQGTQVTVSS”, for which the “polyreactivity (PSR sort gate)” value is listed as “high polyreactivity”.

As for “QVQLVESGGGLVQAGGSLRLSCAASGRIFRANTMGWYRQAPGKERELVAVITASGGSTYYADSVKGRFTISRDNAKNTVYLQMNSLKPEDTAVYYCNRVPRTRLSGHDYWGQGTQVTVSS”, the “polyreactivity (PSR sort gate)” value is “high polyreactivity”.

As for “QVQLVESGGGLVQAGGSLRLSCAASGRIFRAYAMGWYRQAPGKERELVAAITSGVSTNYADSVKGRFTISRDNAKNTVYLQMNSLKPEDTAVYYCAVLGKRNAYYYWGQGTQVTVSS”, the “polyreactivity (PSR sort gate)” value is given as “low polyreactivity”.

On to “QVQLVESGGGLVQAGGSLRLSCAASGRIFRAYAMGWYRQAPGKERELVASITGSGGSTYYADSVKGRFTISRDNAKNTVYFQMNILKPEDTAVYYCAVASYRVWGVGTRYYYWGQGTHVTVSS”, for which the “polyreactivity (PSR sort gate)” value is recorded as “high polyreactivity”.

Consider “QVQLVESGGGLVQAGGSLRLSCAASGRIFRAYTMGWYRPAPGKERELVAAISTRSGRTYYADSVKGRFTISRDKEKNTVYLQMNSLKPEDTAVYYCAADRSGSAWYGYWGQGTQVTVSS”, for which the “polyreactivity (PSR sort gate)” value was “high polyreactivity”.

On to “QVQLVESGGGLVQAGGSLRLSCAASGRIFRDYVMGWYRQAPGKERELVAAITQRGGSTYYADSVKGRFTISRDNAKNTVYLQLNSLKPEDTAVYYCNARWYRYGTGGVGYGGYDYWGQGTQVTVSS”, for which the “polyreactivity (PSR sort gate)” value is reported as “low polyreactivity”.

In the case of “QVQLVESGGGLVQAGGSLRLSCAASGRIFRENAMGWYRQAPGKERELVAAINRSGSRTYYADSVKGRFTISRDNAKNTVYLQMNSLKPEDTAVYYCATASSIRYDYWGQGTQVTVSS”, the “polyreactivity (PSR sort gate)” value was “high polyreactivity”.

For “QVQLVESGGGLVQAGGSLRLSCAASGRIFRGNAMGWYRQAPGKERELVARITGNDGDTYYADSVKGRFTISRDNAKNTVYLQMNSLKPEDTAVYYCATDTSSYRRRYYYWGQGTQVTVSS”, the “polyreactivity (PSR sort gate)” value is on record as “low polyreactivity”.

As for “QVQLVESGGGLVQAGGSLRLSCAASGRIFRGNAMGWYRQVPGKERELVAAISSGTRTTYADSVKGRFTISRDNAKNTVYLQMNSLKPEDTAVYYCAARTSNYPRWRVGGYSYDYWGQGTQVTVSS”, the “polyreactivity (PSR sort gate)” value was “high polyreactivity”.

As for “QVQLVESGGGLVQAGGSLRLSCAASGRIFRGNAMGWYRQVPGKERELVAAISSGTRTTYADSVKGRFTISRDNAKNTVYLQMNSLKPEDTAVYYCAAYNSYLGYPYYYWGQGTQVTVSS”, the “polyreactivity (PSR sort gate)” value is recorded as “high polyreactivity”.

For “QVQLVESGGGLVQAGGSLRLSCAASGRIFRGYAMGWYRQAPGKERELVATISAIGGSTYADSVKGRFTISRDNAKNTVYLQMNSLKPEDTAVYYCNVRKVYRYQYRFEYWGQGTQVTVSS”, the “polyreactivity (PSR sort gate)” value was “high polyreactivity”.

“QVQLVESGGGLVQAGGSLRLSCAASGRIFRGYAMGWYRQAPGKERELVAVISYSGTRTYYADSVKGRFTISRDNAKNTVYLQMNSLKPEDTAVYYCNARANGFKDGYWGQGTQVTVSS”: the “polyreactivity (PSR sort gate)” value is listed as “high polyreactivity”.

On to “QVQLVESGGGLVQAGGSLRLSCAASGRIFRGYAMGWYRQAPGTERELVAAISRRGGSTYYAASVKGRFTISRDNAKNTVYLQNNSLKPEDTAVYYCNADGVHYVAYAGGYWGQGTQVTVSS”, for which the “polyreactivity (PSR sort gate)” value is listed as “high polyreactivity”.
